Results taken from patent US20060270837A1 (published 2006).

Key:
TR4-Fc fusion protein = molecular target: T1, TR4-Fc fusion protein (human, UniProt O00220 109-240); experiment: SPR (BIAcore 2000), TR4:Fc amine-coupled on CM5 chip, IgG1 as analyte 0.75-65 nM, TR2:Fc control cell, double reference subtraction, 1:1 Langmuir fit, 25 C
T1 construct: also called TR4:Fc receptor; not shown: Fc region
T1 chain: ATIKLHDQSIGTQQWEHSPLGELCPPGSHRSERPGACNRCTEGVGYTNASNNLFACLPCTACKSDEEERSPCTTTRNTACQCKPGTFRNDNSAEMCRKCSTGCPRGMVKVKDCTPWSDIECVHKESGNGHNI
Experimental: The optimal pH for this coupling was analyzed using preconcentration experiments ranging from pH 4-7 and was determined to be pH 4.0 for both the TR4 and the TR2 receptor. Amine coupling was used to covalently bind each receptor (fc) to the dextran matrix on the CM5 sensor chip. The immobilization experiment was performed using the manual injection mode. The entire immobilization experiment was performed at 5 μL/min. A 3-minute injection of EDC/NHS (1:1) was applied to each flow cell to active esters. A target level of ˜200RU was set as the goal for all each flow cell. Fc-fusion receptors, TR4 and TR2 at 5 μg/mL, were immobilized onto individual flow cells of a sensor chip. The amount applied varied from 8-14 μL. A 3-minute ethanolamine injection completed the immobilization experiment by inactivating the esters.
The kinetics cycles were performed as follows: The flow rate for the entire cycle was 25 μL/minute with the flow path including both the control (TR2) and experimental (TR4) flow cell at all times. A 1-minute buffer injection was applied to stabilize the baseline. The purified antibody (IgG1 antibody comprising the VH and VL domains of each of the T1014A04, T1014G03, T1014F08, and T14G04 scFvs) was diluted from 10 μg/mL (65 nM) to 0.115 μg/mL (0.75 nM) in running buffer and tested in duplicate. Each concentration was in contact with the control (TR2) and the experimental (TR4) flow cell during a 4-minute association and a 10-minute dissociation phase. Regeneration was performed using 25 mM NaOH from 5-12 μL depending on the sample concentration.
A double-reference subtraction was performed, which refers to the control flow cell subtraction for every cycle, in addition to a buffer cycle subtraction. The 1:1 Langmuir model was used for all evaluation fitting.

TR7 = molecular target: T2, TR7 (human, UniProt O14763 52-184); experiment: specificity phage ELISA, antigen coated at 1 ug/ml, anti-M13-HRP detection
T2 construct: The construct coated in the specificity phage ELISA is not described; also called TRAIL-R2; DR5
T2 sequence (O14763 52-184 limits assumed): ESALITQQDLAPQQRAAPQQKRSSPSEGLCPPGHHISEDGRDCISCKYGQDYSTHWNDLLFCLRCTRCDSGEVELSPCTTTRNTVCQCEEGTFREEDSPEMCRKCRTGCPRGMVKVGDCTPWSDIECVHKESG
Experimental: (§1) Flexible 96-well plates (Falcon) were coated overnight at 4° C. with each antigen (1 μg/ml). All antigens were coated in PBS. After coating, the solutions were removed from the wells, and the plates were blocked for 1 hour at room temperature in MPBS. The plates were washed 3 times with PBS and then 50 μl of pre-blocked phage was added to each well. The plates were incubated at room temperature for 1 hour and then washed with 3 changes of PBST followed by 3 changes of PBS.
(§2) To each well, 50 μl of an anti-M13-HRP conjugate (Pharmacia) at a 1 in 5000 dilution in MPBS was added and the plates incubated at room temperature for 1 hour. Each plate was washed three times with PBST followed by three times with PBS.
(§3) Fifty μl of TMB substrate was then added to each well, and incubated at room temperature for 30 minutes or until colour development. The reaction was stopped by the addition of 25 μl of 0.5 M H₂SO₄. The signal generated was measured by reading the absorbance at 450 nm (A₄₅₀) using a microtitre plate reader (Bio-Rad 3550).

TR10 = molecular target: T3, TR10 (human, UniProt Q9UBN6 56-211, limits assumed); experiment: as above
T3 construct: The construct coated in the specificity phage ELISA is not described; also called TRAIL-R4; DcR2
T3 sequence: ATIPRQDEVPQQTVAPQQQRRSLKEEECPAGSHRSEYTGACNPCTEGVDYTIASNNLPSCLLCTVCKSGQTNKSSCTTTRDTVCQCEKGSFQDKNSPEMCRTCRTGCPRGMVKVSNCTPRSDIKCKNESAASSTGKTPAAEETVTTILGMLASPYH
Experimental: as §1, §2, §3

BLyS = BLyS (human, UniProt Q9Y275 134-285); experiment: as above
BLyS, sequence (Q9Y275 134-285 limits assumed): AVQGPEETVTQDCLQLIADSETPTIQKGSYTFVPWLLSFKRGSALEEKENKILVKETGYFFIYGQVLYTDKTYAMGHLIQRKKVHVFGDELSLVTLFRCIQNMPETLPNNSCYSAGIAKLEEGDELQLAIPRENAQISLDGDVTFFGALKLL
Experimental: as §1, §2, §3

Binder	Kd (TR4-Fc fusion protein)	binding result (TR7)	binding result (TR10)	binding result (BLyS)
IgG1 antibody comprising the VH and VL domains of the T1014G03 scFv (antibody, V domains shown, Whole IgG1) VH: EVQLVQSGAEVKMPGASVKLSCRVSGDTFTAYFIHWVRQAPGQGLEWMGWFNPISGTAGSAEKFRGRVAMTRDTSISTAYMELNRLTFDDTAVYYCARQHRGNTFDPWGQGTLVTVSS VL: QSALTQPASVSGSPGQSITISCTGTSSDIGAYKYVSWYQQHPGKAPKLVIYEVSNRPSGVSSRFSGSKSGQTASLTISGLQADDEADYYCNSYQGYNTWVFGGGTKVTVLG	554 pM	–	–	–
scFv T1014B11 (scFv) scFv: EVQLVQSGAEVKKPGASVKVSCKISGDSFTAYFIHWLRQAPGEGLEWMGWFNPISGTAGSPQKFHGRVAMTRDTSISTAYMELTRLASDDTAIYYCARQHHSNTFDPWGQGTLVTVSSGGGGSGGGGSGGGGSAQSALTQPASVSGSPGQSITISCTGTNSDVGGYNYVSWYQQHPGKAPKLMIYEVNNRPSGVSNRFSGSKSGNTASLTISGLQADDEADYYCSSYTTSNTWVFGGGTKLTVLG	–	no binding	no binding	no binding
scFv T1014F08 (scFv) scFv: EVQLVQSGAEVKKPGASVKLSCRVSGDTFTAYFIHWVRQAPGQGPEWMGWFNPISGTAGSAARFRGRVAMTRDTSISTAYMELNRLTFDDTAVYYCARQHRGNTFDPWGKGTLVTVSSGGGGSGGGGSGGGGSALPVLTQPPSASGSPGQSVTISCTGTSSDVGGYKYVSWYQQHPGKAPKLMIYEVSMRPSGVPDRFSGSKSGNTASLTVSGLQAEDEADYYCASYAGSNNWVFGGGTKLTVLG	–	no binding	no binding	no binding
scFv T1014A04 (scFv) scFv: EVQLVQSGADVKRPGASVKVSCKISGDSFNAYFIHWVRQAPGQGLEWMGWFNPDSGTADSAQKFHGRVTMTRDTSSSTAFLELSRLRSDDTAVYYCVRQHRGNTFAPWGRGTMVTVSSGGGGSGGGGSGGGGSAQSVLTQPPSASGSPGQSVTISCTGTTSDVGGYNYVSWYQQHPGKAPKLMIYGVNQRPSGVPDRFSGSKSGNTASLTVSGLQAEDEADYYCSSYAGSNNWVFGGGTKLTVLG	–	no binding	no binding	no binding
IgG1 antibody comprising the VH and VL domains of the T1014A04 scFv (antibody, V domains shown, Whole IgG1; also called IgG1 format of T1014A04) VH: EVQLVQSGADVKRPGASVKVSCKISGDSFNAYFIHWVRQAPGQGLEWMGWFNPDSGTADSAQKFHGRVTMTRDTSSSTAFLELSRLRSDDTAVYYCVRQHRGNTFAPWGRGTMVTVSS VL: QSVLTQPPSASGSPGQSVTISCTGTTSDVGGYNYVSWYQQHPGKAPKLMIYGVNQRPSGVPDRFSGSKSGNTASLTVSGLQAEDEADYYCSSYAGSNNWVFGGGTKLTVLG	468 pM	–	–	–
IgG1 antibody comprising the VH and VL domains of the T1014G04 scFv (antibody, V domains shown, Whole IgG1; also called T14G04) VH: EVQLVQSGADVKRPGASVKVSCKISGDSFTAYFIHWVRQAPGQGLEWMGWFNPDSGTADSAQKFHGRVTMTRDTSSSTAFLELSRLRSDDTAVYYCVRQHRGNTFAPWGRGTLVTVSS VL: QPVLTQPPSASGSPGQSVTISCTGTSSDVGSYEYVSWYQQHPGKAPRLMISEVNKRPSGVPNRFSGSKSGNTASLTVSGLQADDEADYYCSSYAGSNNWVFGGGTKVTVLG	194 pM	–	–	–
scFv T1014G03 (scFv) scFv: EVQLVQSGAEVKMPGASVKLSCRVSGDTFTAYFIHWVRQAPGQGLEWMGWFNPISGTAGSAEKFRGRVAMTRDTSISTAYMELNRLTFDDTAVYYCARQHRGNTFDPWGQGTLVTVSSGGGGSGGGGSGGGGSAQSALTQPASVSGSPGQSITISCTGTSSDIGAYKYVSWYQQHPGKAPKLVIYEVSNRPSGVSSRFSGSKSGQTASLTISGLQADDEADYYCNSYQGYNTWVFGGGTKVTVLG	–	no binding	no binding	no binding
scFv T1014G04 (scFv) scFv: EVQLVQSGADVKRPGASVKVSCKISGDSFTAYFIHWVRQAPGQGLEWMGWFNPDSGTADSAQKFHGRVTMTRDTSSSTAFLELSRLRSDDTAVYYCVRQHRGNTFAPWGRGTLVTVSSGGGGSGGGGSGGGGSAQPVLTQPPSASGSPGQSVTISCTGTSSDVGSYEYVSWYQQHPGKAPRLMISEVNKRPSGVPNRFSGSKSGNTASLTVSGLQADDEADYYCSSYAGSNNWVFGGGTKVTVLG	–	no binding	no binding	no binding
